The values below come from patent US20110224139A1.

Series [1] addresses T1, Ac-…-CONH2 (RAD16-II) self-assembling peptide, as nanofiber hydrogel.
T1 sequence (peptide, N-terminal acetyl (Ac); C-terminal amide (CONH2)): RARADADARARADADA
Description: in vitro binding experiment: release of 100 nM Alexa-488 labeled protein from a nanofiber hydrogel in culture inserts.

Series [2] deals with T2, SDF-1(S4V)-N-terminal peptide (first 8 amino acids of SDF-1(S4V), FRET peptide).
T2 chain: KPVVLSYR

Series [3] addresses T3, SDF-1-N-terminal peptide (first 8 amino acids of SDF-1, FRET peptide).
T3 chain: KPVSLSYR

Consider “Alexa-488 labeled SSDF-1 (from UniProt P48061 22-89) (ligand)”, for which, in series [1], the percent released from the nanofibers over 24 hours was found to be 73%.

B1: Human recombinant MMP-2 (R&D Systems), activated with 4-aminophenylmercuric acetate (protein)
chain: YNFFPRKPKWDKNQITYRIIGYTPDLDPETVDDAFARAFQVWSDVTPLRFSRIHDGEADIMINFGRWEHGDGYPFDGKDGLLAHAFAPGTGVGGDSHFDDDELWTLGEGQVVRVKYGNADGEYCKFPFLFNGKEYNSCTDTGRSDGFLWCSTTYNFEKDGKYGFCPHEALFTMGGNAEGQPCKFPFRFQGTSYDSCTTEGRTDGYRWCGTTEDYDRDKKYGFCPETAMSTVGGNSEGAPCVFPFTFLGNKYESCTSAGRSDGKMWCATTANYDDDRKWGFCPDQGYSLFLVAAHEFGHAMGLEHSQDPGALMAPIYTYTKNFRLSQDDIKGIQELYGASPDIDLGTGPTPTLGPVTPEICKQDIVFDGIAQIRGEIFFFKDRFIWRTVTPRDKPMGPLLVATFWPELPEKIDAVYEAPQEEKAVFFAGNEYWIYSASTLERGYPKPLTSLGLPPDVQRVDAAFNWSKNKKTYIFAGDKFWRYNEVKKKMDPGFPKLIADAWNAIPDNLDAVVDLQGGGHSYFFKGAYYLKLENQSLKSVKFGSIKSDWLGC
For the molecule B1, in series [2], the “amount of peptide cleaved after 4 hours (FRET peptide cleavage)” value was “no significant amount (1±3 pmol)” and the initial cleavage rate is 0.1±0.1×10^-10M s^-1. Besides, in series [3], the “amount of peptide cleaved after 4 hours (FRET peptide cleavage)” value stood at 205 ± 18 pmol and the initial cleavage rate is reported as 2.0±0.1×10^-10M s^-1. Moreover, the “rate of cleavage relative to SDF-1 (times lower), SDS-PAGE” value with Sumo-SDF-1(S4V)-RAD is given as “the rate of SDF-1(S4V) cleavage is at least 48 times lower than SDF-1”. Moreover, in the series with Sumo-SDF-1-RAD, the “cleavage seen by SDS-PAGE” value is given as “more Sumo-SDF-1-RAD was cleaved within 1 hour than Sumo-SDF-1(S4V)-RAD in 48 hours”.
